Literature values, collected in paper doi:10.1101/390104.

How the values were obtained:
Test in all cases: NMR
Settings in all cases: folded inactive HdeA dimer, client-free (inferred from context); cited from earlier work
Asp51 = Asp51 (UniProt position 72, EDAVLDVQGIA)
Glu46 = Glu46 (UniProt position 67, NKDKPEDAVLD)
Asp47 = Asp47 (UniProt position 68, KDKPEDAVLDV)

Acid stress chaperone HdeA (wild type) (Escherichia coli)
pKa (Asp51): 3.83
pKa (Glu46): 4.07
pKa (Asp47): 4.14
